From patent US7064181 (Takeda / Millennium, dated 2006)
Values belong to the binder of their own block, whether it stands above or below them.

Legend:
[1] = biological target: T1, rat GALR2 (galanin receptor type 2) (rat, UniProt O08726 1-372); assay: displacement of [125I] rat galanin from GALR2-expressing CHO cell membrane fraction
T1 construct: Expressed in CHO/dhfr- cells; The assays used the membrane fraction of these cells; also called rat galanin receptor GALR2
T1 sequence: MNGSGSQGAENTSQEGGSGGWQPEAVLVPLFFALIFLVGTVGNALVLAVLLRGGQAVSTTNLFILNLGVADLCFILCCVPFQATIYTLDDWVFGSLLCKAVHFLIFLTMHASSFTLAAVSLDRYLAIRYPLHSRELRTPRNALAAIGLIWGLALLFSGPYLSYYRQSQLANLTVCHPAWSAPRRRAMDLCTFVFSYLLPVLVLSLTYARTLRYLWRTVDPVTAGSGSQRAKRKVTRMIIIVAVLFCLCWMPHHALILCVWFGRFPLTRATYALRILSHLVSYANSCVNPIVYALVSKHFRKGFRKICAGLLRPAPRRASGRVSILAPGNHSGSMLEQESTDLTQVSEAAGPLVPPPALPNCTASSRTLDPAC

[2] = biological target: T2, monoclonal antibody GR2-1N; assay: competitive EIA on GR2-1N, competitor HRP-labeled SEQ ID NO:44 peptide
T2 construct: Mouse monoclonal against the same KLH complex; IgG2b, κ; also called hybridoma strain No. 4

- IC50 [1]: 1.4 nM
B1: porcine ligand peptide (1-34) (peptide)
peptide: APVHRGRGGWTLNSAGYLLGPVLHPPSRAEGGGK
notes: also called porcine (1-34)

- IC50 [1]: 1.4 nM
B2: porcine ligand peptide (1-30) (peptide)
peptide: APVHRGRGGWTLNSAGYLLGPVLHPPSRAE
notes: also called porcine (1-30)

- IC50 [2]: 6 nM
B3: porcine ligand peptide (1-60) (peptide)
peptide: APVHRGRGGWTLNSAGYLLGPVLHPPSRAEGGGKGKTALGILDLWKAIDGLPYPQSQLAS
notes: also called porcine (1-60); inventive peptide synthesis product
